# What was measured:
# Experiment in all cases: Substrate-dependent NADPH consumption assay at 340 nm, purified enzyme (in vitro)
# Type in all cases: biochemical, Bacillus megaterium
# Details in all cases: other: purified enzyme, NADPH 130-150 μM, 20° C., pH 8.0
# [1] = substrate: CCCCC/C=C\C/C=C\C/C=C\C/C=C\CCCC(=O)O
# Procedure: (§1) NADPH consumption was followed at 340 nm using a Δε340=6.22 mM^−1·cm^−1. Both assays were performed at 20° C. using P450 BM3 in 100 mM potassium phosphate buffer, pH 8.0. Reaction was initiated by addition to the substrate bound enzyme of NADPH to a final concentration of 130-150 μM. In the kinetics assay the rate constant kcat was calculated from the linear part of the decrease in A340 with time, which lasted at least for the first 4 sec. The enzyme concentration typically varied between 0.4 and 0.8 μM in the binding assay and between 8 and 25 nM in the catalytic assay. Substrate stock solutions were freshly prepared the day of the assay. Fatty acid stock solutions were in 50 mM potassium carbonate, SDS was easily dissolved in water, while TCE stock solutions were prepared in ethanol. If appropriate, stocks of candidate agents may be prepared in, for example, N,N-dimethylformamide just before the assay. […] The confidence interval for Kd given in the results section is the mean±the standard deviation of at least four measurements, as calculated using the software Kaleidagraph. Similarly kcat was calculated by fitting data points to the Michaelis-Menten equation. Each data point is the mean of at least four measurements.
# [2] = substrate: CCCCCCCCCCCC(=O)O
# Procedure: as §1
# [3] = substrate: CCCCCCCCCCCCOS(=O)(=O)[O-].[Na+]
# Procedure: as §1
# [4] = substrate: ClC(Cl)C(Cl)Cl
# Procedure: as §1
protein,measurement,setting,value
"cytochrome P450 BM3 (Priestia megaterium NBRC 15308 = ATCC 14581) (protein, expressed in transfected cells; host or cells: E. coli BL21(DE3) transformed with pT7Bm3Z) MTIKEMPQPKTFGELKNLPLLNTDKPVQALMKIADELGEIFKFEAPGRVTRYLSSQRLIKEACDESRFDKNLSQALKFVRDFAGDGLFTSWTHEKNWKKAHNILLPSFSQQAMKGYHAMMVDIAVQLVQKWERLNADEHIEVPEDMTRLTLDTIGLCGFNYRFNSFYRDQPHPFITSMVRALDEAMNKLQRANPDDPAYDENKRQFQEDIKVMNDLVDKIIADRKASGEQSDDLLTHMLNGKDPETGEPLDDENIRYQIITFLIAGHETTSGLLSFALYFLVKNPHVLQKAAEEAARVLVDPVPSYKQVKQLKYVGMVLNEALRLWPTAPAFSLYAKEDTVLGGEYPLEKGDELMVLIPQLHRDKTIWGDDVEEFRPERFENPSAIPQHAFKPFGNGQRACIGQQFALHEATLVLGMMLKHFDFEDHTNYELDIKETLTLKPEGFVVKAKSKKIPLGGIPSPSTEQSAKKVRKKAENAHNTPLLVLYGSNMGTAEGTARDLADIAMSKGFAPQVATLDSHAGNLPREGAVLIVTASYNGHPPDNAKQFVDWLDQASADEVKGVRYSVFGCGDKNWATTYQKVPAFIDETLAAKGAENIADRGEADASDDFEGTYEEWREHMWSDVAAYFNLDIENSEDNKSTLSLQFVDSAADMPLAKMHGAFSTNVVASKELQQPGSARSTRHLEIELPKEASYQEGDHLGVIPRNYEGIVNRVTARFGLDASQQIRLEAEEEKLAHLPLAKTVSVEELLQYVELQDPVTRTQLRAMAAKTVCPPHKVELEALLEKQAYKEQVLAKRLTMLELLEKYPACEMKFSEFIALLPSIRPRYYSISSSPRVDEKQASITVSVVSGEAWSGYGEYKGIASNYLAELQEGDTITCFISTPQSEFTLPKDPETPLIMVGPGTGVAPFRGFVQARKQLKEQGQSLGEAHLYFGCRSPHEDYLYQEELENAQSEGIITLHTAFSRMPNQPKTYVQHVMEQDGKKLIELLDQGAHFYICGDGSQMAPAVEATLMKSYADVHQVSEADARLWLQQLEEKGRYAKDVWAG",Km,[1],0.37 ± 0.07 µM
same,kcat,[1],3570 ± 88 mole NADPH/min/mole P450
same,Km,[2],67.8 ± 14.5 µM
same,kcat,[2],1928 ± 114 mole NADPH/min/mole P450
same,Km,[3],0.51 ± 0.12 µM
same,kcat,[3],2605 ± 61 mole NADPH/min/mole P450
same,Km,[4],7.96 ± 2.041 mM
same,kcat,[4],5133.5 ± 641.3 mole NADPH/min/mole P450

# — patent US6927039B2, “Enzymatic process” (Nanobiodesign Limited, priority 2000, dated 2005)
